Source: paper PMC10356863, “Architecture of the human G-protein-methylmalonyl-CoA mutase nanoassembly for B12 delivery and repair” (Nature Communications, 2023)

Assays:
Experiment in all cases: cell-based or functional assay
[1] = biological target: T1, human MMUT R228Q (patient variant) (human, UniProt P22033 33-750, R228Q)
T1 sequence: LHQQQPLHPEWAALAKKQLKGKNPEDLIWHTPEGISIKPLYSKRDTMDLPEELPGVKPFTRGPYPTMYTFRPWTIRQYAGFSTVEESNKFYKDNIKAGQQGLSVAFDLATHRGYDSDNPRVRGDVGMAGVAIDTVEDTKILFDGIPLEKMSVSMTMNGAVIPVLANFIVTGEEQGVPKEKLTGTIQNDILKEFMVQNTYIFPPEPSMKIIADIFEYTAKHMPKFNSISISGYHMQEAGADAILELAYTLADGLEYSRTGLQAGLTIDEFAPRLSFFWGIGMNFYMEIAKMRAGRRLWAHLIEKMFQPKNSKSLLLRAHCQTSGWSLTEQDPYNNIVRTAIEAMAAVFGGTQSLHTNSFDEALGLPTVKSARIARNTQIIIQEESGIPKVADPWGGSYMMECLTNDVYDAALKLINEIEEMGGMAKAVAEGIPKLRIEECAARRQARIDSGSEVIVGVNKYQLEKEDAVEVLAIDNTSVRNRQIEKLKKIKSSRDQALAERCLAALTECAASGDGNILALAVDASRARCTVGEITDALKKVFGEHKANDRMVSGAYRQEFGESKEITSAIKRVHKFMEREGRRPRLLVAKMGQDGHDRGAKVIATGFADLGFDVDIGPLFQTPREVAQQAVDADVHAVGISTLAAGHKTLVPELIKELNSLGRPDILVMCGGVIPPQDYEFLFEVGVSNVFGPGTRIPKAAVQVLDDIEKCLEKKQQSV

[2] = biological target: T2, human MMUT R616C (patient variant) (human, UniProt P22033 33-750, R616C)
T2 sequence: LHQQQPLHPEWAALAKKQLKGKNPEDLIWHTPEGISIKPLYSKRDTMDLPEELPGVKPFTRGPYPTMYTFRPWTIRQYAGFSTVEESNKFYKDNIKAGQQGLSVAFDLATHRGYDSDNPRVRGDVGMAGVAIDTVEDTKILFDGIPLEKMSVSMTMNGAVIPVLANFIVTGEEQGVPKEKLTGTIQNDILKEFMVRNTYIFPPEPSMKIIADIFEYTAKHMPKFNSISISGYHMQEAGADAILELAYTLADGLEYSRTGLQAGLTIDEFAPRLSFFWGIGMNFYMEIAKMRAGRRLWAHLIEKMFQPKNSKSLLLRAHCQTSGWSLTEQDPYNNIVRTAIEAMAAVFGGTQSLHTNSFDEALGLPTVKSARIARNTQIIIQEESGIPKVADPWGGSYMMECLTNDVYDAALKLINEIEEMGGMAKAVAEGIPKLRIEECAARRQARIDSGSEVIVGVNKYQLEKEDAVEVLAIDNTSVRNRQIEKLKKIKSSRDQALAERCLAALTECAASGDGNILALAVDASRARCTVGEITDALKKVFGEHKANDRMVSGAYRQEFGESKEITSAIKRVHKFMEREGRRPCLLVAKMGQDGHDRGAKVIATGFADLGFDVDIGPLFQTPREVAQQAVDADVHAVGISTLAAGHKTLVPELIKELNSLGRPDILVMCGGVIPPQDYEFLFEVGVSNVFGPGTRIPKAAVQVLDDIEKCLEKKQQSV

[3] = biological target: T3, human MMUT R694W (patient variant) (human, UniProt P22033 33-750, R694W)
T3 sequence: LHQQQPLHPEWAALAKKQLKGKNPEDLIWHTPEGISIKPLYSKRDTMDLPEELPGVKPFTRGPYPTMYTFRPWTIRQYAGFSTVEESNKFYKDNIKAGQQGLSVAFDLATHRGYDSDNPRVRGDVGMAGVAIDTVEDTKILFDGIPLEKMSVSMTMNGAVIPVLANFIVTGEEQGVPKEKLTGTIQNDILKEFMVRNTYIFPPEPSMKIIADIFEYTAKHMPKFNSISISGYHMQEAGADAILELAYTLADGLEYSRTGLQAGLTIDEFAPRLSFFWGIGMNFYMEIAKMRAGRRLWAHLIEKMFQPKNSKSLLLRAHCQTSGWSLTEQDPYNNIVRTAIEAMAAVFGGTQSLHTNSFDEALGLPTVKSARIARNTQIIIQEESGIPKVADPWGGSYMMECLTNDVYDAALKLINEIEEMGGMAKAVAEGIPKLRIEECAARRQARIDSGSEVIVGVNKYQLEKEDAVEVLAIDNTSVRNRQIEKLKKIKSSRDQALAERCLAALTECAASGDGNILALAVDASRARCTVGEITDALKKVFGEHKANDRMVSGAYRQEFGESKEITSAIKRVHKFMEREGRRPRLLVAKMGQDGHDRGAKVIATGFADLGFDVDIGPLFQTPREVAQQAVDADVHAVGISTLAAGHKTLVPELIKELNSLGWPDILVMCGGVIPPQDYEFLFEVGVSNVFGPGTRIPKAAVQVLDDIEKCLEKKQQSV

B1: human MMAA (G-protein chaperone of MMUT), wild type (enzyme)
chain: KDHTEGLSDKEQRFVDKLYTGLIQGQRACLAEAITLVESTHSRKKELAQVLLQKVLLYHREQEQSNKGKPLAFRVGLSGPPGAGKSTFIEYFGKMLTERGHKLSVLAVDPSSCTSGGSLLGDKTRMTELSRDMNAYIRPSPTRGTLGGVTRTTNEAILLCEGAGYDIILIETVGVGQSEFAVADMVDMFVLLLPPAGGDELQGIKRGIIEMADLVAVTKSDGDLIVPARRIQAEYVSALKLLRKRSQVWKPKVIRISARSGEGISEMWDKMKDFQDLMLASGELTAKRRKQQKVWMWNLIQESVLEHFRTHPTVREQIPLLEQKVLIGALSPGLAADFLLKAFKSRD
- GAP activation: GTPase activity of MMAA in the presence of MMUT, fold attenuation against wild-type MMUT [1]: 12 fold
- GAP activation: GTPase activity of MMAA in the presence of MMUT, fold attenuation against wild-type MMUT [2]: 7 fold
- GAP activation: GTPase activity of MMAA in the presence of MMUT, fold attenuation against wild-type MMUT [3]: 12 fold
